We go through five molecules from article PMC5052118 (Nature structural & molecular biology, 2016).

Like-named read-outs stand apart in the source and are kept apart here.

The target in data set [1] is T1, Cch (Staphylococcus aureus USA300, UniProt A0A0H2XHF3 1-595). The experiment in a line: EMSA. In general terms: A gel shift assay detects complexes by their altered migration in electrophoresis.
For the next data set, the target named is CchWH (Staphylococcus aureus USA300, UniProt A0A0H2XHF3 436-595). The experiment in a line: EMSA.
The data set “crystal structure” deals with the molecule itself. The data set is described as follows: crystal structure.
Data set [2] deals with T1, Cch. The data set is described as follows: EMSA. The source holds these as a separate data set.
For the next data set, the target named is T2, LP1413 (Staphylococcus aureus USA300, UniProt Q0WXP5 1-96).
T2 sequence: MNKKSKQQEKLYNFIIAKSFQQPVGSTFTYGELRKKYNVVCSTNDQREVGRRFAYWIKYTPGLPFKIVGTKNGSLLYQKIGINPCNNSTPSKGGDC
The data set is described as follows: EMSA.

B1: scc-emsa-3F/4R 60 bp duplex (3' end of cch) (dsDNA)
DNA 1: TTTTAAATCCGCTAATGAAGGGATAGGCCCTTCAGGAGTTCACGAAGATTTCTAATTGTC
DNA 2: GACAATTAGAAATCTTCGTGAACTCCTGAAGGGCCTATCCCTTCATTAGCGGATTTAAAA
On to B1, for which the binding result in the data set with Cch [1] and with CchWH was “binds” throughout.

B2: Selenomethionine-derivatized Cch-6xHis (enzyme)
chain: MSYTLFEIGPFALDSFGWKETIPPKKDGDSEKVVRMASPIIVNARFSDPITGVEKLIITNNNGKKDIFESDILTTRNLPSLIKYGYSINEKYIRSLSYALQLMRDRLPLSELYEGVGILETPFGYLISLDKVLKSIQFNQSSPSYPIVDSAYDLTPKGTFDNWFNMYIDEVKGHLLLELAVIFGISALVTSFLKHKHEIEFAGILFSFTGQSSTGKSTAAALAVSVAGNPTKGNETLFRSWNATRNALEGYLSNNYGIPIVFDELSSTTLRDTTGLLYSIAEGQGRQRSNVHGEVKTPKNWGTSVISTSEYSIFNDSAQNDGLRVRTIEINEQFTTNATNADNIKKAVALNYGHVLPLVAKYLINREDEVIQWFYKEVDWFEAKLKDETNNTGIRMFKRYAVITTSAKILGRVLSTDIDIANIRDYFIDYHTHTVSERSLADKAIDVIIQFVAQNRGKFSDEGALKNMFENYGLISLKDDHIEVKIIANVFKQMLNNHQFQDVNNVVNALRDKGFILADRGRQTTKRSVKDNSGKKQSLVFYHLKLDVEFASILGLTKDKSLLQNWTPSNDNKAAKELFKSANEGIGPSGVHEDF
modifications: selenomethionine in place of methionine
On to B2, for which, in the data set “crystal structure”, the stoichiometry N (usually a count of units in the complex or per binding partner) was found to be 6.

B3: HELA-8R ssDNA (ssDNA)
DNA: CGCTTTAAAAGAAGTCAACGTCTTACCACTTCCAGTTGTATGCCATACATATCC
With B3, the binding result with Cch [2] is reported as “binds”.

Take GAGTAATGATATGTGGCTATGTCTTAATATATGTGAAGAA (ssDNA) [iter-int-1F ssDNA 40 nt]: the binding result with LP1413 was “binds”.

B4: iter-int-1F/inter-int-2R 40 bp duplex (dsDNA)
DNA 1: GAGTAATGATATGTGGCTATGTCTTAATATATGTGAAGAA
DNA 2: TTCTTCACATATATTAAGACATAGCCACATATCATTACTC
For B4, the binding result with LP1413 is “no binding”.
